Results published in patent publication US11702475B2, “Cysteine engineered fibronectin type III domain binding molecules” (Janssen Biotech, Inc., priority 2013, dated 2023).

How the values were obtained:
H292 cells = assay: Inhibition of proliferation of H292 cells (HGF-induced); format: cell-based, human
From the text: Inhibition of tumor cell proliferation can be measured using standard methods and methods described herein.
It was verified that the enhanced potency for inhibition of EGFR and c-Met phosphorylation with the bispecific EGFR/c-Met molecules translated into an enhanced inhibition of signaling and proliferation. […] The proliferation assay was completed using different combinations EGFR and c-Met binding FN3 domains either as a mixture or linked in a bispecific format. […] This confirmed that the avidity effect observed at the level of the receptors (FIG. 6 and FIG. 7) translates into an improvement in inhibiting cell signaling (Table 17) and cell proliferation (Table 18).
Select EGFR/c-Met molecules were characterized for their affinity to both EGFR and c-Met, their ability to inhibit EGFR and c-Met autophosphorylation, and their effect on proliferation of HGF cells. Binding affinity of the bispecific EGFR/c-Met molecules to recombinant EGFR and/or c-Met extracellular domain was further by surface Plasmon resonance methods using a Proteon Instrument (BioRad) according to protocol described in Example 3.

[1] = Differential scanning calorimetry in PBS of FN3 domains; format: physicochemical; details: DSC in PBS; c-Met-binding FN3 domains
From the text: A subset of the EGFR binding FN3 domains was engineered to increase the conformational stability of each molecule. The mutations L17A, N46V, and E86I (described in US Pat. Publ. No. 2011/0274623) were incorporated into clones P54AR4-83, P54CR4-31, and P54AR4-37 by DNA synthesis. […] Differential scanning calorimetry in PBS was used to assess the stability of each mutant in order to compare it to that of the corresponding parent molecule.
Thermal Stability of c-Met-Binding FN3 Domains Differential scanning calorimetry in PBS was used to assess the stability of each FN3 domain.

Molecule | IC50 (H292 cells) [µM] | Thermal Stability (Tm) [1] [C.]
ECB15: bispecific SEQ ID 57: P54AR4-83V2, (AP)5, P114AR7P94-A3 (protein, bispecific EGFR/cMet binding molecule) MLPAPKNLVVSEVTEDSARLSWDDPWAFYESFLIQYQESEKVGEAIVLTVPGSERSYDLTGLKPGTEYTVSIYGVHNVYKDTNMRGLPLSAIFTTAPAPAPAPAPLPAPKNLVVSRVTEDSARLSWTAPDAAFDSFWIRYFEFLGSGEAIVLTVPGSERSYDLTGLKPGTEYVVNIMGVKGGKISPPLSAIFTT | 0.023 | –
ECB96: bispecific SEQ ID 63: P54AR4-83V22, (AP)5, P114AR9P122-A7v2 (protein, bispecific EGFR/cMet binding molecule) MLPAPKNLVVSEVTEDSARLSWDDPWAFYESFLIQYQESEKVGEAIVLTVPGSERSYDLTGLKPGTEYTVSIYGVHNVYKDTNIRGLPLSAIFTTAPAPAPAPAPLPAPKNLVVSRVTEDSARLSWTAPDAAFDSFWIRYFEFVSKGDAIVLTVPGSERSYDLTGLKPGTEYVVNILGVKGGSISPPLSAIFTT | 9.48 | –
ECB94: bispecific SEQ ID 61: P54AR4-83V22, (AP)5, P114AR7P94-A3v22 (protein, bispecific EGFR/cMet binding molecule) MLPAPKNLVVSEVTEDSARLSWDDPWAFYESFLIQYQESEKVGEAIVLTVPGSERSYDLTGLKPGTEYTVSIYGVHNVYKDTNIRGLPLSAIFTTAPAPAPAPAPLPAPKNLVVSRVTEDSARLSWTAPDAAFDSFWIRYFEFLGSGEAIVLTVPGSERSYDLTGLKPGTEYVVNILGVKGGKISPPLSAIFTT | 0.0296 | –
ECB97: bispecific SEQ ID 64: P54AR4-83V22, (AP)5, P114AR7P95-C5V2 (protein, bispecific EGFR/cMet binding molecule) MLPAPKNLVVSEVTEDSARLSWDDPWAFYESFLIQYQESEKVGEAIVLTVPGSERSYDLTGLKPGTEYTVSIYGVHNVYKDTNIRGLPLSAIFTTAPAPAPAPAPLPAPKNLVVSRVTEDSARLSWTAPDAAFDSFWIRYFEFLGSGEAIVLTVPGSERSYDLTGLKPGTEYVVNILSVKGGSISPPLSAIFTT | 0.031 | –
ECB95: bispecific SEQ ID 62: P54AR4-83V22, (AP)5, P114AR9P121-A6v2 (protein, bispecific EGFR/cMet binding molecule) MLPAPKNLVVSEVTEDSARLSWDDPWAFYESFLIQYQESEKVGEAIVLTVPGSERSYDLTGLKPGTEYTVSIYGVHNVYKDTNIRGLPLSAIFTTAPAPAPAPAPLPAPKNLVVSRVTEDSARLSWTAPDAAFDSFWIRYFEFVGSGEAIVLTVPGSERSYDLTGLKPGTEYVVNILGVKGGSISPPLSAIFTT | 0.383 | –
P114AR7P92-H5: c-Met-binding FN3 domain, SEQ ID NO: 37 (protein, c-Met binding FN3 domain) LPAPKNLVVSRVTEDSARLSWTAPDAAFDSFWIRYLEFLLGGEAIVLTVPGSERSYDLTGLKPGTEYVVQIMGVKGGTVSPPLSAIFTT | – | 87
P114AR7P94-E5: c-Met-binding FN3 domain, SEQ ID NO: 42 (protein, c-Met binding FN3 domain) LPAPKNLVVSRVTEDSARLSWTAPDAAFDSFWIRYFEFLGSGEAIVLTVPGSERSYDLTGLKPGTEYAVNIMGVKGGRVSVPLSAIFTT | – | 80
P114AR5P74-A5: c-Met-binding FN3 domain, SEQ ID NO: 32 (protein, c-Met binding FN3 domain) LPAPKNLVVSRVTEDSARLSWTAPDAAFDSFWIRYDEVVVGGEAIVLTVPGSERSYDLTGLKPGTEYYVNILGVKGGSISVPLSAIFTT | – | 74.1
P114AR7P92-F6: c-Met-binding FN3 domain, SEQ ID NO: 35 (protein, c-Met binding FN3 domain) LPAPKNLVVSRVTEDSARLSWTAPDAAFDSFWIRYFEFLGSGEAIVLTVPGSERSYDLTGLKPGTEYVVNILGVKGGGLSVPLSAIFTT | – | 76.8
P114AR7P93-H9: c-Met-binding FN3 domain, SEQ ID NO: 40 (protein, c-Met binding FN3 domain) LPAPKNLVVSRVTEDSARLSWTAPDAAFDSFWIRYFEFLGSGEAIVLTVPGSERSYDLTGLKPGTEYVVQIIGVKGGHISLPLSAIFTT | – | 88.2
P114AR7P94-A3: c-Met-binding FN3 domain, SEQ ID NO: 41 (protein, c-Met binding FN3 domain) LPAPKNLVVSRVTEDSARLSWTAPDAAFDSFWIRYFEFLGSGEAIVLTVPGSERSYDLTGLKPGTEYVVNIMGVKGGKISPPLSAIFTT | – | 86.2
P114AR7P95-F10: c-Met-binding FN3 domain, SEQ ID NO: 47 (protein, c-Met binding FN3 domain) LPAPKNLVVSRVTEDSARLSWTAPDAAFDSFWIRYFEFTTAGEAIVLTVPGSERSYDLTGLKPGTEYVVNIMGVKGGSISPPLSAIFTT | – | 85.2
P114AR7P95-G7: c-Met-binding FN3 domain, SEQ ID NO: 48 (protein, c-Met binding FN3 domain) LPAPKNLVVSRVTEDSARLSWTAPDAAFDSFWIRYFELLSTGEAIVLTVPGSERSYDLTGLKPGTEYVVNIMGVKGGSISPPLSAIFTT | – | 87.2
P114AR7P95-D4: c-Met-binding FN3 domain, SEQ ID NO: 45 (protein, c-Met binding FN3 domain) LPAPKNLVVSRVTEDSARLSWTAPDAAFDSFWIRYFEFLGSGEAIVLTVPGSERSYDLTGLKPGTEYVVQILGVKGGYISIPLSAIFTT | – | 85.3
P114AR7P95-H8: c-Met-binding FN3 domain, SEQ ID NO: 49 (protein, c-Met binding FN3 domain) LPAPKNLVVSRVTEDSARLSWTAPDAAFDSFWIRYFEFVSKGEAIVLTVPGSERSYDLTGLKPGTEYVVNIMGVKGGSISPPLSAIFTT | – | 83
P114AR7P93-G8: c-Met-binding FN3 domain, SEQ ID NO: 39 (protein, c-Met binding FN3 domain) LPAPKNLVVSRVTEDSARLSWTAPDAAFDSFWIRYFEFLGSGEAIVLTVPGSERSYDLTDLKPGTEYGVTINGVKGGRVSTPLSAIFTT | – | 76.8
